Source: patent publication US20240043562A1 (ACADEMISCH ZIEKENHUIS LEIDEN H O D N LUMC, published 2024)
One block for each binder: values may come before it.

Biological target: T1, MuSK at the postsynaptic membrane of mouse neuromuscular junctions (levator auris longus muscle) (mouse, UniProt Q61006 22-868)
T1 construct: whole, on cells; Target in tissue immunostaining; also called mouse NMJs; MuSK at the NMJ
T1 sequence (looked up): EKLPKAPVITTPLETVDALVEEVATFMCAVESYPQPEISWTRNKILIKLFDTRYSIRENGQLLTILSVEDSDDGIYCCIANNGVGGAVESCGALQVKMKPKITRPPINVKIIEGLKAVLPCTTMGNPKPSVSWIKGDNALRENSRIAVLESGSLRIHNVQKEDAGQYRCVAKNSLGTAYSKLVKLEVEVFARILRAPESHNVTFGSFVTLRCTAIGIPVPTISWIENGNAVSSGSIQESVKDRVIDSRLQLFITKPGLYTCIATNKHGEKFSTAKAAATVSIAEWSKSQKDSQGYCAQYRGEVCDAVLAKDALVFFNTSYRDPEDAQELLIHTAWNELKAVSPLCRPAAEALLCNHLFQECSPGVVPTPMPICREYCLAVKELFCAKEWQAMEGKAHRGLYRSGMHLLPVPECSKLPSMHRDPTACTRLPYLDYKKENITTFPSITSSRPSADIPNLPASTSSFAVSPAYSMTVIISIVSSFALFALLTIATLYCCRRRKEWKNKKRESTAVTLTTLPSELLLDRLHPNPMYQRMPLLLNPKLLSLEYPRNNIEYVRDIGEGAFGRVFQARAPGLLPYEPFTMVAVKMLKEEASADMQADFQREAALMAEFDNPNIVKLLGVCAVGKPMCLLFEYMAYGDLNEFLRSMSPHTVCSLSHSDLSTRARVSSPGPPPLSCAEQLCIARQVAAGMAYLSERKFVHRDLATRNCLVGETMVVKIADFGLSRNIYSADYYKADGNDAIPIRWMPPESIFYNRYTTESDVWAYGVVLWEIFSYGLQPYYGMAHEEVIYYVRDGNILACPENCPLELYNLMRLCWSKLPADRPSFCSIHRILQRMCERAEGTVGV
Assay: immunostaining of whole-mount mouse levator auris longus muscle
Procedure: FIG. 6—anti-MuSK/Anti-HIV-b12 exchanged heterospecific IgG4 antibodies were generated using methods detailed in Labrijn, 2014, Nature Protocols and Genmab, Labrijn, 2013, PNAS, which were adjusted to IgG4. These antibodies were tested for MuSK binding in mouse neuromuscular junction (NMJ) in ex vivo levator auris longus muscle. Equivalent anti-MuSK homospecific antibodies were also tested in parallel. The data confirms that both heterospecific MuSK IgG4 antibodies (13-3B5/HIV IgG4 and 11-3F6/HIV IgG4) and homospecific MuSK IgG4 antibodies (13-3B5 IgG4 and 11-3F6 IgG4) bind to MuSK at the NMJ.
To determine the binding characteristics of the recombinant and medium produced antibodies we performed an epitope mapping ELISA as described previously (Huijbers et al., 2016). Truncated versions of the MuSK proteins were immobilized on maxisorp plates and exposed to either antibodies from the single cell cultures 1:10 or to recombinant antibodies. Recombinant antibodies were also used to immunostain mouse levator auris longus muscle overnight at 4° C. at 1:100. AChRs in synaptic regions were labelled with AlexaFluor488 conjugated alpha-bungarotoxin (Life technologies) and bound recombinant antibodies were detected with AlexaFluor594 conjugated goat anti-human IgG (Life technologies). Muscles were imaged on a Leica SP8 confocal laser-scanning microscope and analyzed using Las X software.

binding result: binds
B1: recombinant 11-3F6 IgG4 (antibody, V domains shown)
VH: EVQLVESGGGLVKPGGSLRLSCAASGFTFSSYTMDWVRQAPGKGLEWVSSIGSNGDYIYYADSVRGRFTISRDNAKNSLYLQMNSLRPDDTADYYCARGQLAVAGTHFDYWGRGSLVTVSS
VL: DIQMTQSPSSLSASVGDRVTISCRASQKVNKYVNWYQQTPGKAPRLLIYAASTLQSGVPSRFSGSGSGANFTLTISGLQPEDFAIYFCQQSYSPLCTFGQGTKLEIK
notes: Variable regions cloned in an IgG4 backbone and expressed in HEK293-F cells; Bivalent and monospecific; also called homospecific 11-3F6 IgG4

binding result: binds
B2: recombinant 13-3B5 IgG4 (antibody, V domains shown)
VH: QVQLVQSGAVVAKPGASVQVSCKTSGYTFTGQYLHWVRQAPGQGLEWIGWINPSSGVTKFAEKFEGRATMTRDTSITTAYIDLRSLRSDDTATYYCATLSLGVYYVGMVAWGQGTLVTVSS
VL: SYELTQPPSVSVSPGQTATITCSGDGLAQQHVYWFQQRPGQAPLLIIYKDIERPSGIPERFSGSSSGTTAMLTISGVQAEDEADYYCQSGDRTATSVLFGGGTKMTVL
notes: Variable regions cloned in an IgG4 backbone and expressed in HEK293-F cells; Bivalent and monospecific; also called homospecific 13-3B5 IgG4; 13-365
